FireProtDB (doi:10.1006/jmbi.2001.5050)

B1: Cold shock protein CspB, P41016 (parent)
chain: MQRGKVKWFNNEKGYGFIEVEGGSDVFVHFTAIQGEGFKTLEEGQEVSFEIVQGNRGPQAANVVKL

Variants of: B1
Conditions: Bacillus caldolyticus, pH 7, CD, sodium cacodylate-HCl 100 mM, reversible: yes, structure 1C9O, whole UniProt chain shown

Row | Variant | ddG of mutation (higher = less stable) (25 °C, GdnHCl) | denaturant m value (25 °C, GdnHCl) | denaturant midpoint (higher = more stable) (25 °C, GdnHCl) | unfolding free energy (25 °C, GdnHCl) | ddG of mutation (higher = less stable) (70 °C, Thermal, NaCl 2 M) | unfolding free energy (70 °C, Thermal, NaCl 2 M) | ddG of mutation (higher = less stable) (70 °C, Thermal) | unfolding free energy (70 °C, Thermal) | Tm (Thermal) | change of melting temperature, mutant - wild type (higher = more stable) (Thermal) | unfolding enthalpy (van 't Hoff) (Thermal)
1 | V64T | 0.31 kcal/mol | 1.79 kcal/mol/M | 2.5 M | 0.88 kcal/mol | 0.19 kcal/mol | 2.01 kcal/mol | 0.26 kcal/mol | 0.81 kcal/mol | 75.1 °C | -1.8 °C | 58.3 kcal/mol
2 | R3E L66E | – | – | – | – | – | – | – | – | 44.6 °C | -32.3 °C | 36.8 kcal/mol
3 | L66E | 0.84 kcal/mol | 1.74 kcal/mol/M | 2.21 M | 0.36 kcal/mol | 1.27 kcal/mol | 0.93 kcal/mol | – | – | 68.9 °C | -8 °C | 50.2 kcal/mol
4 | L66A | – | – | – | – | 0.07 kcal/mol | 2.13 kcal/mol | – | – | – | – | –
5 | E21A | – | – | – | – | 0.29 kcal/mol | 1.91 kcal/mol | 0.29 kcal/mol | 0.79 kcal/mol | 75 °C | -1.9 °C | 57.8 kcal/mol
6 | S24D | -0.1 kcal/mol | 1.65 kcal/mol/M | 2.79 M | 1.29 kcal/mol | -0.19 kcal/mol | 2.39 kcal/mol | -0.22 kcal/mol | 1.29 kcal/mol | 77.8 °C | 0.9 °C | 61.7 kcal/mol
7 | T31S | – | – | – | – | -0.19 kcal/mol | 2.39 kcal/mol | -0.17 kcal/mol | 1.24 kcal/mol | 77.8 °C | 0.9 °C | 59.8 kcal/mol
8 | Y15F | 0.1 kcal/mol | 1.6 kcal/mol/M | 2.69 M | 1.1 kcal/mol | -0.07 kcal/mol | 2.27 kcal/mol | 0.05 kcal/mol | 1.03 kcal/mol | 76.7 °C | -0.2 °C | 56.6 kcal/mol
9 | Q53E | -0.02 kcal/mol | 1.82 kcal/mol/M | 2.68 M | 1.22 kcal/mol | 0 kcal/mol | 2.2 kcal/mol | 0.1 kcal/mol | 0.98 kcal/mol | 76.1 °C | -0.8 °C | 58.8 kcal/mol
10 | R3E E46A | 0.43 kcal/mol | 1.63 kcal/mol/M | 2.47 M | 0.76 kcal/mol | 0.96 kcal/mol | 1.24 kcal/mol | – | – | 64.6 °C | -12.3 °C | 52.8 kcal/mol
11 | Q2L | -0.41 kcal/mol | 1.7 kcal/mol/M | 2.95 M | 1.6 kcal/mol | -0.29 kcal/mol | 2.49 kcal/mol | -0.55 kcal/mol | 1.63 kcal/mol | 80.9 °C | 4 °C | 57.8 kcal/mol
12 | E46A | -0.1 kcal/mol | – | 2.77 M | 1.29 kcal/mol | 0.12 kcal/mol | 2.08 kcal/mol | 0.22 kcal/mol | 0.86 kcal/mol | 75.4 °C | -1.5 °C | 57.6 kcal/mol
13 | G23Q | 0 kcal/mol | 1.89 kcal/mol/M | 2.62 M | 1.2 kcal/mol | 0.31 kcal/mol | 1.89 kcal/mol | 0.29 kcal/mol | 0.79 kcal/mol | 74.7 °C | -2.2 °C | 59.5 kcal/mol
14 | R3E E21A | – | – | – | – | 1.1 kcal/mol | 1.1 kcal/mol | – | – | 60 °C | -16.9 °C | 49.2 kcal/mol
15 | R3K | – | – | – | – | 0.14 kcal/mol | 2.06 kcal/mol | 0.19 kcal/mol | 0.88 kcal/mol | 76.1 °C | -0.8 °C | 53.5 kcal/mol
16 | R3L | – | – | – | – | 0.22 kcal/mol | 1.98 kcal/mol | 0.93 kcal/mol | 0.14 kcal/mol | 70.9 °C | -6 °C | 55.7 kcal/mol
17 | R3A | – | – | – | – | 1.05 kcal/mol | 1.15 kcal/mol | – | – | 64.9 °C | -12 °C | 51.4 kcal/mol
18 | R3E | 0.84 kcal/mol | 1.6 kcal/mol/M | 2.23 M | 0.36 kcal/mol | 1 kcal/mol | 1.2 kcal/mol | – | – | – | – | –
19 | R3E E46A L66E | – | – | – | – | – | – | – | – | 50.3 °C | -26.6 °C | 40.4 kcal/mol
20 | G23Q S24D | -0.07 kcal/mol | 1.67 kcal/mol/M | 2.75 M | 1.27 kcal/mol | 0.1 kcal/mol | 2.1 kcal/mol | 0.12 kcal/mol | 0.96 kcal/mol | 75.9 °C | -1 °C | 59.5 kcal/mol
21 | E46A L66E | 0.84 kcal/mol | 1.84 kcal/mol/M | 2.2 M | 0.36 kcal/mol | 1.39 kcal/mol | 0.81 kcal/mol | – | – | 68 °C | -8.9 °C | 51.9 kcal/mol
22 | E46A L66A | – | – | – | – | 0.22 kcal/mol | 1.98 kcal/mol | 0.29 kcal/mol | 0.79 kcal/mol | 75 °C | -1.9 °C | 56.9 kcal/mol
23 | N11S | 0 kcal/mol | 1.74 kcal/mol/M | 2.69 M | 1.2 kcal/mol | -0.22 kcal/mol | 2.41 kcal/mol | -0.33 kcal/mol | 1.41 kcal/mol | 79.2 °C | 2.3 °C | 58.8 kcal/mol
